To fix the notation:
B1: ketosteroid isomerase (KSI) Y32F/Y57F (enzyme, Pseudomonas putida)
chain: MNLPTAQEVQGLMARYIELVDVGDIEAIVQMFADDATVEDPFGQPPIHGREQIAAFFRQGLGGGKVRACLTGPVRASHNGCGAMPFRVEMVWNGQPCALDVIDVMRFDEHGRIQTMQAYWSEVNLSVREPQ
B2: ketosteroid isomerase (KSI) Y57F (enzyme, Pseudomonas putida)
chain: B1 chain with F32Y
B3: ketosteroid isomerase (KSI) Y57F/D40N (enzyme, Pseudomonas putida)
chain: LPTAQEVQGLMARYIELVDVGDIEAIVQMYADDATVENPFGQPPIHGREQIAAFFRQGLGGGKVRACLTGPVRASHNGCGAMPFRVEMVWNGQPCALDVIDVMRFDEHGRIQTMQAYWSEVNLSVREPQ

Consider three proteins from publication doi:10.1101/2021.09.29.461692 (bioRxiv, 2021).

Numbering of substitutions follows the chain as printed. Numbers in names are those of the source.

The series deals with the molecule itself. Nature of the series: crystal structure.
In the case of B1, the “stoichiometry N” value was 2. On to B2, for which the “stoichiometry N” value came to 2. As for B3, the figure is 2.

The term stoichiometry N denotes a count of units in the complex or per binding partner.
